Patent US20170369572A1

Target: human CD47 on CCRF-CEM cells (human) (UniProt Q08722)
Test: flow cytometry on CCRF-CEM cells, MFI against concentration, one site specific binding with Hill slope

- Kd: 16 nM
B1: B6H12, mu anti-hu CD47 (antibody, from another filing, V domains shown)
VH: EVQLVESGGDLVKPGGSLKLSCAASGFTFSGYGMSWVRQTPDKRLEWVATITSGGTYTYYPDSVKGRFTISRDNAKNTLYLQIDSLKSEDTAIYFCARSLAGNAMDYWGQGTSVTVSS
VL: DIVMTQSPATLSVTPGDRVSLSCRASQTISDYLHWYQQKSHESPRLLIKFASQSISGIPSRFSGSGSGSDFTLSINSVEPEDVGVYYCQNGHGFPRTFGGGTKLEIK
